For the assay, the target named is bioluminescent capsule containing ALuc16 in its frame structure (DEVD sequence as cargo). As to the kind of experiment: cell-based or functional assay.
bioluminescent capsule containing ALuc16 in its frame structure (DEVD sequence as cargo), sequence (chain, as listed by the source, form in doubt): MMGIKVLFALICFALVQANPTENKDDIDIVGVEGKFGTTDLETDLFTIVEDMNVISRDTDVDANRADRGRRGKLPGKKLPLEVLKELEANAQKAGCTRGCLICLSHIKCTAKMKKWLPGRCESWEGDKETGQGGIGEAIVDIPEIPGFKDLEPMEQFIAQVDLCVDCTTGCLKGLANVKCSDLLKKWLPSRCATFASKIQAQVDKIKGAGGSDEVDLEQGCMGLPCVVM

In turn, Caspase-3 (enzyme) gave a luminescence intensity of COS-7 cells with versus without STS (two minutes), LAS-4000 image of 2 folds.
